In patent publication US20220306695A1, “COMPSTATIN ANALOGUES AND THEIR MEDICAL USES” (priority 2019, published 2022):
Positions of bridges follow the written chain, without caps; N, C: chain ends. Non-standard residues stand in square brackets, D forms with d. Trp(1-Me) = Cn1cc(C[C@H](N)C(=O)O)c2ccccc21; NMeI = CC[C@H](C)[C@H](NC)C(=O)O; Sar = CNCC(=O)O

Target: Human C3 (human, UniProt P01024 23-1663)
Experiment: cell-based or functional assay

Chain of Human C3 (P01024 23-1663 limits assumed): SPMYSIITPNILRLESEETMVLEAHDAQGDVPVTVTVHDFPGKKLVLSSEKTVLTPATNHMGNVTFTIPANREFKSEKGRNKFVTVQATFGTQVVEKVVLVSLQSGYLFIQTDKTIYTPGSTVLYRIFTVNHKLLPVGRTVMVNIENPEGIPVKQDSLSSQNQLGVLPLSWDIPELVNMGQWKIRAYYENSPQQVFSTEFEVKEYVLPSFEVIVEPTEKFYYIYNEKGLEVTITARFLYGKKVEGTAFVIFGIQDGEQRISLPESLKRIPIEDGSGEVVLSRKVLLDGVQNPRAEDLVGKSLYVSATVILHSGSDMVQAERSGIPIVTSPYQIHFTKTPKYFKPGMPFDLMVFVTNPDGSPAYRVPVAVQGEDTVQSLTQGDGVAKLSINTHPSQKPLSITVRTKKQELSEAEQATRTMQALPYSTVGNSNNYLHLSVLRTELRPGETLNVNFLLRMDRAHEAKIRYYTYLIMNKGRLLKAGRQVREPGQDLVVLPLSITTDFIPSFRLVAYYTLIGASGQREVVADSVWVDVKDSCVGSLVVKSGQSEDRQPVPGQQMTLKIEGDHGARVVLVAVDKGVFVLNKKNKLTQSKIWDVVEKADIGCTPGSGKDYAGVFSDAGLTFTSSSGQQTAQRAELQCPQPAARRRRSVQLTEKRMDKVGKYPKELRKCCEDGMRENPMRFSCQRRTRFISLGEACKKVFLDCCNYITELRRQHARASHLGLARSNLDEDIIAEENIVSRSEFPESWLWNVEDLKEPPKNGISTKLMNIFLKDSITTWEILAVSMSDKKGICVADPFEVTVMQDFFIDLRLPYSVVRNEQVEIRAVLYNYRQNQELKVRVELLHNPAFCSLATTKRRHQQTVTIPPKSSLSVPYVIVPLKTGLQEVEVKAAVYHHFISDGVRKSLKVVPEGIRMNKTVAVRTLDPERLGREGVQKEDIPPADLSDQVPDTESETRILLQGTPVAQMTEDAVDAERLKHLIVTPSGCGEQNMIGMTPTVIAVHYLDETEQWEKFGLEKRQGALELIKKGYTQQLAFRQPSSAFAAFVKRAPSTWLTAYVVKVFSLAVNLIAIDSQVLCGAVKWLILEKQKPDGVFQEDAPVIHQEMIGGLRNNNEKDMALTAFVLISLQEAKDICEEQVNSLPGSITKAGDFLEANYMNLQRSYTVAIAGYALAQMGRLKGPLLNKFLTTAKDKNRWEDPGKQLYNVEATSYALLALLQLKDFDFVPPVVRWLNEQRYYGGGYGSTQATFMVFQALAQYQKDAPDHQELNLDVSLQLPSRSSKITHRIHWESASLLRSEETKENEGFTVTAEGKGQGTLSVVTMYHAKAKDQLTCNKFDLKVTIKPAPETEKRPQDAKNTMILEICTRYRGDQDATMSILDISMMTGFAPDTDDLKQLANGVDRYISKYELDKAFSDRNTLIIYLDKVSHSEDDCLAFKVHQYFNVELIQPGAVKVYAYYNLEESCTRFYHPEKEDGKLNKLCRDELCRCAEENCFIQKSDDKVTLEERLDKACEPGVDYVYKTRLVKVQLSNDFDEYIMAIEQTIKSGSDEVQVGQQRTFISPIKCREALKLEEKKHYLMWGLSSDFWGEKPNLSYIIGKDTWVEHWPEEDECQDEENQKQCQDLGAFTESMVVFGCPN

Binder	IC50[nM], inhibition of hemolysis [nM]
H-[dY]ICI[Trp(1-Me)]QDW[Sar]AHRC[NMeI]-NH2 (disulfide 3-13; SMILES CC[C@H](C)[C@H](NC(=O)[C@H](N)Cc1ccc(O)cc1)C(=O)N[C@H]1CSSC[C@@H](C(=O)N(C)[C@H](C(N)=O)[C@@H](C)CC)NC(=O)[C@H](CCCNC(=N)N)NC(=O)[C@H](Cc2c[nH]cn2)NC(=O)[C@H](C)NC(=O)CN(C)C(=O)[C@H](Cc2c[nH]c3ccccc23)NC(=O)[C@H](CC(=O)O)NC(=O)[C@H](CCC(N)=O)NC(=O)[C@H](Cc2cn(C)c3ccccc23)NC(=O)[C@H]([C@@H](C)CC)NC1=O) [Compound 48]	< 100
Ac-YCIWQDWGEHRCTGAES-NH2 (disulfide 2-12; SMILES CC[C@H](C)[C@@H]1NC(=O)[C@@H](NC(=O)[C@H](Cc2ccc(O)cc2)NC(C)=O)CSSC[C@@H](C(=O)N[C@H](C(=O)NCC(=O)N[C@@H](C)C(=O)N[C@@H](CCC(=O)O)C(=O)N[C@@H](CO)C(N)=O)[C@@H](C)O)NC(=O)[C@H](CCCNC(=N)N)NC(=O)[C@H](Cc2c[nH]cn2)NC(=O)[C@H](CCC(=O)O)NC(=O)CNC(=O)[C@H](Cc2c[nH]c3ccccc23)NC(=O)[C@H](CC(=O)O)NC(=O)[C@H](CCC(N)=O)NC(=O)[C@H](Cc2c[nH]c3ccccc23)NC1=O) [Compound 66]	< 100
Ac-YCI[Trp(1-Me)]QDWGEHRCTGAES-NH2 (disulfide 2-12; SMILES CC[C@H](C)[C@@H]1NC(=O)[C@@H](NC(=O)[C@H](Cc2ccc(O)cc2)NC(C)=O)CSSC[C@@H](C(=O)N[C@H](C(=O)NCC(=O)N[C@@H](C)C(=O)N[C@@H](CCC(=O)O)C(=O)N[C@@H](CO)C(N)=O)[C@@H](C)O)NC(=O)[C@H](CCCNC(=N)N)NC(=O)[C@H](Cc2c[nH]cn2)NC(=O)[C@H](CCC(=O)O)NC(=O)CNC(=O)[C@H](Cc2c[nH]c3ccccc23)NC(=O)[C@H](CC(=O)O)NC(=O)[C@H](CCC(N)=O)NC(=O)[C@H](Cc2cn(C)c3ccccc23)NC1=O) [Compound 62]	< 100
Ac-EGSAICIWQDWGEHRCTE-NH2 (disulfide 6-16; SMILES CC[C@H](C)[C@H](NC(=O)[C@H](C)NC(=O)[C@H](CO)NC(=O)CNC(=O)[C@H](CCC(=O)O)NC(C)=O)C(=O)N[C@H]1CSSC[C@@H](C(=O)N[C@H](C(=O)N[C@@H](CCC(=O)O)C(N)=O)[C@@H](C)O)NC(=O)[C@H](CCCNC(=N)N)NC(=O)[C@H](Cc2c[nH]cn2)NC(=O)[C@H](CCC(=O)O)NC(=O)CNC(=O)[C@H](Cc2c[nH]c3ccccc23)NC(=O)[C@H](CC(=O)O)NC(=O)[C@H](CCC(N)=O)NC(=O)[C@H](Cc2c[nH]c3ccccc23)NC(=O)[C@H]([C@@H](C)CC)NC1=O) [Compound 55]	< 250
Ac-ICI[Trp(1-Me)]QDWGEHRCTGAES-NH2 (disulfide 2-12; SMILES CC[C@H](C)[C@H](NC(C)=O)C(=O)N[C@H]1CSSC[C@@H](C(=O)N[C@H](C(=O)NCC(=O)N[C@@H](C)C(=O)N[C@@H](CCC(=O)O)C(=O)N[C@@H](CO)C(N)=O)[C@@H](C)O)NC(=O)[C@H](CCCNC(=N)N)NC(=O)[C@H](Cc2c[nH]cn2)NC(=O)[C@H](CCC(=O)O)NC(=O)CNC(=O)[C@H](Cc2c[nH]c3ccccc23)NC(=O)[C@H](CC(=O)O)NC(=O)[C@H](CCC(N)=O)NC(=O)[C@H](Cc2cn(C)c3ccccc23)NC(=O)[C@H]([C@@H](C)CC)NC1=O) [Compound 51]	< 100
